What was measured:
[1] = target: VARC (acidic terminal segment, cytoplasmic domain fragment of PfEMP1, comprising VARC A and VARC B); experiment: ITC (GE MicroCal ITC200); conditions: pH 6.9, 298 K, 0.013 M (no added salt), 10 mM sodium phosphate
[2] = target: T1, VARC (cytoplasmic acidic terminal sequence domain of P. falciparum erythrocyte membrane protein-1, PfEMP1) (Plasmodium falciparum, UniProt Q8IAK2 2467-2757); experiment: ITC; 0.7 mM K2A1 in the syringe, 0.07 mM VARC in the cell; 298 K; 10 mM sodium phosphate pH 6.9, 5 mM DTT, no additional salt; 40 injections of 1 μL; fitted to a sequential four site model, and to a simple hetero-association model (A + B <-> AB) in SEDPHAT for an apparent global Kd; conditions: both partners purified
T1 construct: also called ATS; cytoplasmic domain of PfEMP1; source: E. coli BL21 (DE3) CodonPlus, purified (Ni-NTA, gel permeation chromatography on Superdex 75)
T1 sequence: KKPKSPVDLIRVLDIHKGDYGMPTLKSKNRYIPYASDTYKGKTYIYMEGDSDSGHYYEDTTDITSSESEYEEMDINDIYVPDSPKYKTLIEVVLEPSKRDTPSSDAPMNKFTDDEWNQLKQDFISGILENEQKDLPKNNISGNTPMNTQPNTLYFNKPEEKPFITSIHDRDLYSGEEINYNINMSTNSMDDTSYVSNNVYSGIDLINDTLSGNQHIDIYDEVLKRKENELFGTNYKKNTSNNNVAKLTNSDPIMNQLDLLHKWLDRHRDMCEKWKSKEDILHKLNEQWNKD

[3] = target: T1, VARC (cytoplasmic acidic terminal …); experiment: NMR titration; 2D [15N,1H] HSQC of 10 μM 15N-labelled K2A1 with unlabelled VARC added at 1:1, 1:2.5, 1:5, 1:7.5 and 1:10 molar ratios; 278 K; 10 mM sodium phosphate pH 6.2, 5 mM DTT, no additional salt (ionic strength 0.013 M); Kd by fit of amide chemical shift perturbations; the 1:5 complex also measured at 20, 50, 100 and 150 mM NaCl; conditions: both partners purified

| Molecule | Kd (first value, four-site sequential model) [1] | Kd (fourth value, four-site sequential model) [1] | Kd (second value, four-site sequential model) [1] | Kd (third value, four-site sequential model) [1] | Kd [2] | Kd of site 1 (four-site binding model) [2] | Kd of site 2 (four-site binding model) [2] | Kd of site 3 (four-site binding model) [2] | Kd of site 4 (four-site binding model) [2] | Kd [3] |
| --- | --- | --- | --- | --- | --- | --- | --- | --- | --- | --- |
| K2A1 (first tandem repeat of the K2A lysine-rich region of knob-associated histidine-rich protein, KAHRP) | 9.8 µM | 9.6 µM | 10.3 µM | 10.1 µM |  |  |  |  |  |  |
| KHHSSKKHEGNDGEGEKKKKSKKHKDHDGEKKKSKKHKDNEDAESVKSKK (domain or fragment, also called truncated K2A; source: E. coli BL21 (DE3) CodonPlus, purified (Ni-NTA, gel permeation chromatography on Superdex 75); not shown: His6, C-terminal, kept) |  |  |  |  | 32.1 µM | 9.8 µM | 10.3 µM | 10.1 µM | 9.6 µM | 7 to 15 µM |
